Experimental data taken from article PMC9820451, “Coprinopsis cinerea Galectin CGL1 Induces Apoptosis and Inhibits Tumor Growth in Colorectal Cancer Cells” (International Journal of Molecular Sciences, 2022).

Target: the molecule itself
Experiment: dynamic light scattering; dilutions of the purified galectin filtered through 0.22 µm membranes, Zetasizer Nano-S; molecular weight estimated from the hydrodynamic radius; self-association, tetramer

B1: Coprinopsis cinerea galectin CGL1 (natural protein)
chain: MLYHLFVNNQIKLQDDFKAEAVATIRSSVFNSKGGTTVFNFLSAGENILLHISIRPGENAIVFNSRTKGGAWGPEERVPYAGKFKGPNPSITVLDHGDRFQILFDNATAIYYTKRIKENAAAIAYSAENSLFSSPVTVDIHGLLPPLPPA
notes: galectin CGL1 of Coprinopsis cinerea, full-length cgl1 amplified from genomic DNA of strain Okayama 7 (#130; ATCC MYA-4618), cloned into pET22b(+); No removal of the tag is told
With B1 the “stoichiometry N” value was 4.
